Legend:
[1] = system: Hsp90 complexes in Mia-PaCa-2 cell extract; experiment: Nano-LC-MS/MS of PU-beads pull-downs; assay type: binding, human; conditions: protein identified in PU-beads pull-down of Mia-PaCa-2 cell extract; QSTAR-Elite QTof MS
Description: (§1) Lysates prepared as mentioned above were first pre-cleaned by incubation with control beads overnight at 4° C. […] Beads were washed with lysis buffer, proteins eluted by boiling in 2% SDS, separated on a denaturing gel and Coomassie stained according to manufacturer's procedure (Biorad). […] Analyses of the batch purified pools were done using a QSTAR-Elite hybrid quadrupole time-of-flight mass spectrometer (QTof MS) (AB/MDS Sciex), equipped with a nano spray ion source. Peptide mixtures (in 20 μL) are loaded onto a trapping guard column (0.3×5-mm PepMap C18 100 cartridge from LC Packings) using an Eksigent nano MDLC system (Eksigent Technologies, Inc) at a flow rate of 20 μL/min. […] Electrospray ionization (ESI) needle voltage was set at about 1800 V. The mass analyzer is operated in automatic, data-dependent MS/MS acquisition mode, with the threshold set to 10 counts per second of doubly or triply charged precursor ions selected for fragmentation scans. Survey scans of 0.25 sec are recorded from 400 to 1800 amu; up to 3 MS/MS scans are then collected sequentially for the selected precursor ions, recording from 100 to 1800 amu. The collision energy is automatically adjusted in accordance with the m/z value of the precursor ions selected for MS/MS. Selected precursor ions are excluded from repeated selection for 60 sec after the end of the corresponding fragmentation duty cycle. […] One missed tryptic cleavage site was allowed, precursor ion mass tolerance=0.4 Da fragment ion mass tolerance=0.4 Da, protein modifications were allowed for Met-oxide, Cys-acrylamide and N-terminal acetylation. MudPit scoring was typically applied with ‘require bold red’ activated, and using significance threshold score p<0.05. Unique peptide counts (or ‘spectral counts’) and percent sequence coverages for all identified proteins were exported to Scaffold Proteome Software (version 2_06_01, www.proteomesoftware.com) for further bioinformatic analysis (Table 5a). Using output from Mascot, Scaffold validates, organizes, and interprets mass spectrometry data, allowing more easily to manage large amounts of data, to compare samples, and to search for protein modifications.

[2] = system: Hsp90 complexes in K562 cell extract; experiment: Nano-LC-MS/MS of PU-beads pull-downs; assay type: binding; conditions: protein identified in PU-beads pull-down of K562 cell extract, QSTAR-Elite QTof MS
Description: Protein cargo isolated from cell lysate with PU-beads or control-beads was subjected to proteomic analysis by nano liquid chromatography coupled to tandem mass spectrometry (nano LC-MS/MS). Initial protein identification was performed using the Mascot search engine, and was further evaluated using Scaffold Proteome Software (Tables 5a-d).
as §1

Molecule	Number of Assigned Spectra, Mia-Paca 2 [1]	Number of Assigned Spectra, K562 Prep 1 [2]	Number of Assigned Spectra, K562 Prep 2 [2]
CTTN (protein, UniProt Q14247 1-550, looked up) Src substrate cortactin: MWKASAGHAVSIAQDDAGADDWETDPDFVNDVSEKEQRWGAKTVQGSGHQEHINIHKLRENVFQEHQTLKEKELETGPKASHGYGGKFGVEQDRMDKSAVGHEYQSKLSKHCSQVDSVRGFGGKFGVQMDRVDQSAVGFEYQGKTEKHASQKDYSSGFGGKYGVQADRVDKSAVGFDYQGKTEKHESQRDYSKGFGGKYGIDKDKVDKSAVGFEYQGKTEKHESQKDYVKGFGGKFGVQTDRQDKCALGWDHQEKLQLHESQKDYKTGFGGKFGVQSERQDSAAVGFDYKEKLAKHESQQDYSKGFGGKYGVQKDRMDKNASTFEDVTQVSSAYQKTVPVEAVTSKTSNIRANFENLAKEKEQEDRRKAEAERAQRMAKERQEQEEARRKLEEQARAKTQTPPVSPAPQPTEERLPSSPVYEDAASFKAELSYRGPVSGTEPEPVYSMEAADYREASSQQGLAYATEAVYESAEAPGHYPAEDSTYDEYENDLGITAVALYDYQAAGDDEISFDPDDIITNIEMIDDGWWRGVCKGRYGLFPANYVELRQ	2	6	6
HEATR6 (protein, UniProt Q6AI08 1-1181, looked up) HEAT repeat-containing …: MAAVQVVGSWPSVQPREAPREAIPERGNGFRLLSARLCALRPDDSSSARTEIHLLFDQLISENYSEGSGVAPEDVSALLVQACRLVPLNQNHLVSKVSQLIHHLLNRLQVIVDEQHLDFLLAYTISAIHQCSSWTHREILQALAALVYCNGSKCQKYLPELLGNTGLLMKLSDLAQSDPEVRRAAVHCMANLCLSVPGQPYLEEPYQNVCFQAFLTILQSPKSSDMDDITFCMLLQNALKGIQSLLNGGRMKLTQTDELGALLAVLKKFMFHGLPGLNIEMPTVLYPTPLPQYDGRTPIKPQQSESSASRPTLNKKKKSKVKPKKIQQGEEEEKESSGEIEAAPVTGTGRVNLHEGNTWCPSSLGVQSLPLDGSGAAEKDGVSSSFSSSSWKRVSSSESDFSDAEGGMQSKMRSYQAKVRQGALVCFLSTIKSIEKKVLYGYWSAFIPDTPELGSPQSVSLMTLTLKDPSPKTRACALQVLSAILEGSKQFLSVAEDTSDHRRAFTPFSVMIACSIRELHRCLLLALVAESSSQTVTQIIKCLANLVSNAPYDRLKLSLLTKVWNQIKPYIRHKDVNVRVSSLTLLGAIVSTHAPLPEVQLLLQQPCSSGLGNSNSATPHLSPPDWWKKAPAGPSLEETSVSSPKGSSEPCWLIRLCISIVVLPKEDSCSGSDAGSAAGSTYEPSPMRLEALQVLTLLARGYFSMTQAYLMELGEVICKCMGEADPSIQLHGAKLLEELGTGLIQQYKPDSTAAPDQRAPVFLVVMFWTMMLNGPLPRALQNSEHPTLQASACDALSSILPEAFSNLPNDRQMLCITVLLGLNDSKNRLVKAATSRALGVYVLFPCLRQDVIFVADAANAILMSLEDKSLNVRAKAAWSLGNLTDTLIVNMETPDPSFQEEFSGLLLLKMLRSAIEASKDKDKVKSNAVRALGNLLHFLQPSHIEKPTFAEIIEESIQALISTVLTEAAMKVRWNACYAMGNVFKNPALPLGTAPWTSQAYNALTSVVTSCKNFKVRIRSAAALSVPGKREQYGSVDQYARIWNALVTALQKSEDTIDFLEFKYCVSLRTQICQALIHLLSLASASDLPCMKETLELSGNMVQSYILQFLKSGAEGDDTGAPHSPQERDQMVRMALKHMGSIQAPTGDTARRAIMGFLEEILAVCFDSSGSQGALPGLTNQ	0	2	1
TRIPI3 (protein, UniProt Q15645 1-432, looked up) Pachytene checkpoint protein …: MDEAVGDLKQALPCVAESPTVHVEVHQRGSSTAKKEDINLSVRKLLNRHNIVFGDYTWTEFDEPFLTRNVQSVSIIDTELKVKDSQPIDLSACTVALHIFQLNEDGPSSENLEEETENIIAANHWVLPAAEFHGLWDSLVYDVEVKSHLLDYVMTTLLFSDKNVNSNLITWNRVVLLHGPPGTGKTSLCKALAQKLTIRLSSRYRYGQLIEINSHSLFSKWFSESGKLVTKMFQKIQDLIDDKDALVFVLIDEVESLTAARNACRAGTEPSDAIRVVNAVLTQIDQIKRHSNVVILTTSNITEKIDVAFVDRADIKQYIGPPSAAAIFKIYLSCLEELMKCQIIYPRQQLLTLRELEMIGFIENNVSKLSLLLNDISRKSEGLSGRVLRKLPFLAHALYVQAPTVTIEGFLQALSLAVDKQFEERKKLAAYI	8	3	3
NAT10 (protein, UniProt Q9H0A0 1-1025, looked up) RNA cytidine acetyltransferase: MHRKKVDNRIRILIENGVAERQRSLFVVVGDRGKDQVVILHHMLSKATVKARPSVLWCYKKELGFSSHRKKRMRQLQKKIKNGTLNIKQDDPFELFIAATNIRYCYYNETHKILGNTFGMCVLQDFEALTPNLLARTVETVEGGGLVVILLRTMNSLKQLYTVTMDVHSRYRTEAHQDVVGRFNERFILSLASCKKCLVIDDQLNILPISSHVATMEALPPQTPDESLGPSDLELRELKESLQDTQPVGVLVDCCKTLDQAKAVLKFIEGISEKTLRSTVALTAARGRGKSAALGLAIAGAVAFGYSNIFVTSPSPDNLHTLFEFVFKGFDALQYQEHLDYEIIQSLNPEFNKAVIRVNVFREHRQTIQYIHPADAVKLGQAELVVIDEAAAIPLPLVKSLLGPYLVFMASTINGYEGTGRSLSLKLIQQLRQQSAQSQVSTTAENKTTTTARLASARTLYEVSLQESIRYAPGDAVEKWLNDLLCLDCLNITRIVSGCPLPEACELYYVNRDTLFCYHKASEVFLQRLMALYVASHYKNSPNDLQMLSDAPAHHLFCLLPPVPPTQNALPEVLAVIQVCLEGEISRQSILNSLSRGKKASGDLIPWTVSEQFQDPDFGGLSGGRVVRIAVHPDYQGMGYGSRALQLLQMYYEGRFPCLEEKVLETPQEIHTVSSEAVSLLEEVITPRKDLPPLLLKLNERPAERLDYLGVSYGLTPRLLKFWKRAGFVPVYLRQTPNDLTGEHSCIMLKTLTDEDEADQGGWLAAFWKDFRRRFLALLSYQFSTFSPSLALNIIQNRNMGKPAQPALSREELEALFLPYDLKRLEMYSRNMVDYHLIMDMIPAISRIYFLNQLGDLALSAAQSALLLGIGLQHKSVDQLEKEIELPSGQLMGLFNRIIRKVVKLFNEVQEKAIEEQMVAAKDVVMEPTMKTLSDDLDEAAKEFQEKHKKEVGKLKSMDLSEYIIRGDDEEWNEVLNKAGPNASIISLKSDKKRKLEAKQEPKQSKKLKNRETKNKKDMKLKRKK	1	8	3
FAM120A (protein, UniProt Q9NZB2 1-1118, looked up) Constitutive coactivator of …: MGVQGFQDYIEKHCPSAVVPVELQKLARGSLVGGGRQRPPQTPLRLLVDADNCLHRLYGGFYTDWVSGGQWNHMLGYLAALAKACFGGNIELFVFFNGALEKARLHEWVKRQGNERQTAQQIVSHVQNKGTPPPKVWFLPPVCMAHCIRLALIRFHVKVAQSIEDHHQEVIGFCRENGFHGLVAYDSDYALCNIPYYFSAHALKLSRNGKSLTTSQYLMHEVAKQLDLNPNRFPIFAALLGNHILPDEDLASFHWSLLGPEHPLASLKVRAHQLVLPPCDVVIKAVADYVRNIQDTSDLDAIAKDVFQHSQSRTDDKVIRFKRAIGYYSATSKPMSFHPPHYLAARPGPFGMPGMVPPHVPPQMLNIPQTSLQAKPVAPQVPSPGGAPGQGPYPYSLSEPAPLTLDTSGKNLTEQNSYSNIPHEGKHTPLYERSSPINPAQSGSPNHVDSAYFPGSSTSSSSDNDEGSGGATNHISGNKIGWEKTGSHSEPQARGDPGDQTKAEGSSTASSGSQLAEGKGSQMGTVQPIPCLLSMPTRNHMDITTPPLPPVAPEVLRVAEHRHKKGLMYPYIFHVLTKGEIKIAVSIEDEANKDLPPAALLYRPVRQYVYGVLFSLAESRKKTERLAFRKNRLPPEFSPVIIKEWAAYKGKSPQTPELVEALAFREWTCPNLKRLWLGKAVEDKNRRMRAFLACMRSDTPAMLNPANVPTHLMVLCCVLRYMVQWPGARILRRQELDAFLAQALSPKLYEPDQLQELKIENLDPRGIQLSALFMSGVDMALFANDACGQPIPWEHCCPWMYFDGKLFQSKLLKASREKTPLIDLCDGQADQAAKVEKMRQSVLEGLSFSRQSHTLPFPPPPALPFYPASAYPRHFGPVPPSQGRGRGFAGVCGFGGPYGETVATGPYRAFRVAAASGHCGAFSGSDSSRTSKSQGGVQPIPSQGGKLEIAGTVVGHWAGSRRGRGGRGPFPLQVVSVGGPARGRPRGVISTPVIRTFGRGGRYYGRGYKNQAAIQGRPPYAASAEEVAKELKSKSGESKSSAMSSDGSLAENGVMAEEKPAPQMNGSTGDARAPSHSESALNNDSKTCNTNPHLNALSTDSACRREAALEAAVLNKEE	12	1	1
AIP (protein, UniProt O00170 1-330, looked up) AH receptor-interacting …: MADIIARLREDGIQKRVIQEGRGELPDFQDGTKATFHYRTLHSDDEGTVLDDSRARGKPMELIIGKKFKLPVWETIVCTMREGEIAQFLCDIKHVVLYPLVAKSLRNIAVGKDPLEGQRHCCGVAQMREHSSLGHADLDALQQNPQPLIFHMEMLKVESPGTYQQDPWAMTDEEKAKAVPLIHQEGNRLYREGHVKEAAAKYYDAIACLKNLQMKEQPGSPEWIQLDQQITPLLLNYCQCKLVVEEYYEVLDHCSSILNKYDDNVKAYFKRGKAHAAVWNAQEAQADFAKVLELDPALAPVVSRELRALEARIRQKDEEDKARFRGIFSH	0	10	0

— patent publication US20220074941A1, “HSP90 COMBINATION THERAPY” (Sloan-Kettering Institute for Cancer Research, priority 2011, published 2022)
